Measured values published in patent US20210292396A1.

Experiments:
Experiment in all cases: cell-based or functional assay
[1] = target: Env of HIV isolate 0013095-2.11 (clade C) (HIV)
[2] = target: Env of HIV isolate 0260.v5.c36 (clade A) (HIV)
[3] = target: Env of HIV isolate 3468.v1.c12 (clade AD) (HIV)
[4] = target: Env of HIV isolate 3817.v2.c59 (clade CD) (HIV)
[5] = target: Env of HIV isolate 57128.vrc15 (clade D) (HIV)
[6] = target: Env of HIV isolate 620345.c1 (clade AE) (HIV)
[7] = target: Env of HIV isolate 6785.v5.c14 (clade C) (HIV)
[8] = target: Env of HIV isolate BG1168.01 (clade B) (HIV)
[9] = target: Env of HIV isolate BG505.W6M.C2 (clade A) (HIV)
[10] = target: Env of HIV isolate BJOX025000.01.1 (clade AE) (HIV)
[11] = target: Env of HIV isolate C2101.c1 (clade AE) (HIV)
[12] = target: Env of HIV isolate CH038.12 (clade BC) (HIV)
[13] = target: Env of HIV isolate CH119.10 (clade BC) (HIV)
[14] = target: Env of HIV isolate CNE20 (clade BC) (HIV)
[15] = target: Env of HIV isolate CNE56 (clade AE) (HIV)
[16] = target: Env of HIV isolate CNE7 (clade BC) (HIV)
[17] = target: Env of HIV isolate CNE8 (clade AE) (HIV)
[18] = target: Env of HIV isolate DU123.06 (clade C) (HIV)
[19] = target: Env of HIV isolate MN.3 (clade B) (HIV)
[20] = target: Env of HIV isolate MS208.A1 (clade A) (HIV)
[21] = target: Env of HIV isolate Q461.e2 (clade AD) (HIV)
[22] = target: Env of HIV isolate RHPA.7 (clade B) (HIV)
[23] = target: Env of HIV isolate T251-18 (clade AG) (HIV)
[24] = target: Env of HIV isolate T255-34 (clade AG) (HIV)
[25] = target: Env of HIV isolate TH023.6 (clade AE) (HIV)
[26] = target: Env of HIV isolate THRO.18 (clade B) (HIV)
[27] = target: Env of HIV isolate ZM106.9 (clade C) (HIV)
[28] = target: HIV Env of isolate 0013095-2.11 (HIV)
[29] = target: HIV Env of isolate 00836-2.5 (HIV)
[30] = target: HIV Env of isolate 0439.v5.c1 (HIV)
[31] = target: HIV Env of isolate 231965.c01 (HIV)
[32] = target: HIV Env of isolate 235-47 (HIV)
[33] = target: HIV Env of isolate 25711-2.4 (HIV)
[34] = target: HIV Env of isolate 288.38 (HIV)
[35] = target: HIV Env of isolate 3168.v4.c10 (HIV)
[36] = target: HIV Env of isolate 6095.v1.c10 (HIV)
[37] = target: HIV Env of isolate 6540.v4.c1 (HIV)
[38] = target: HIV Env of isolate A07412M1.vrc12 (HIV)
[39] = target: HIV Env of isolate AC10.29 (HIV)
[40] = target: HIV Env of isolate ADA.DG (HIV)
[41] = target: HIV Env of isolate BI369.9A (HIV)
[42] = target: HIV Env of isolate BX08.16 (HIV)
[43] = target: HIV Env of isolate CAAN.A2 (HIV)
[44] = target: HIV Env of isolate CE703010217.B6 (HIV)
[45] = target: HIV Env of isolate CNE12 (HIV)
[46] = target: HIV Env of isolate CNE4 (HIV)
[47] = target: HIV Env of isolate CNE57 (HIV)
[48] = target: HIV Env of isolate HO86.8 (HIV)
[49] = target: HIV Env of isolate MI369.A5 (HIV)
[50] = target: HIV Env of isolate R1166.c1 (HIV)
[51] = target: HIV Env of isolate SO18.18 (HIV)
[52] = target: HIV Env of isolate TZBD.02 (HIV)
[53] = target: HIV Env of isolate WITO.33 (HIV)

In the case of PGT121 (antibody), the IC50, pseudovirus neutralization [1] is reported as over 50 µg/mL, the IC50, pseudovirus neutralization [2] is reported as 0.0587 µg/mL and the IC50, pseudovirus neutralization [3] is reported as 0.0763 µg/mL. It also gave an IC50, pseudovirus neutralization [4] of 22.2 µg/mL, an IC50, pseudovirus neutralization [5] of 1.27 µg/mL and an IC50, pseudovirus neutralization [6] of over 50 µg/mL. For the same substance, the IC50, pseudovirus neutralization [7] was 0.0503 µg/mL, the IC50, pseudovirus neutralization [8] was over 50 µg/mL and the IC50, pseudovirus neutralization [9] was 0.0513 µg/mL. For the same substance, the IC50, pseudovirus neutralization [10] was over 50 µg/mL, the IC50, pseudovirus neutralization [11] was over 50 µg/mL and the IC50, pseudovirus neutralization [12] was 0.0113 µg/mL. It also gave an IC50, pseudovirus neutralization [13] of 0.0313 µg/mL, an IC50, pseudovirus neutralization [14] of 0.005 µg/mL and an IC50, pseudovirus neutralization [15] of over 50 µg/mL. For the same substance, the IC50, pseudovirus neutralization [16] was 0.0477 µg/mL, the IC50, pseudovirus neutralization [17] was over 50 µg/mL and the IC50, pseudovirus neutralization [18] was 0.0477 µg/mL. For the same substance, the IC50, pseudovirus neutralization [19] was over 50 µg/mL, the IC50, pseudovirus neutralization [20] was over 50 µg/mL and the IC50, pseudovirus neutralization [21] was over 50 µg/mL. For the same substance, the IC50, pseudovirus neutralization [22] was 0.0357 µg/mL, the IC50, pseudovirus neutralization [23] was 3.05 µg/mL and the IC50, pseudovirus neutralization [24] was 2.04 µg/mL. The IC50, pseudovirus neutralization [25] was over 50 µg/mL, the IC50, pseudovirus neutralization [26] was over 50 µg/mL and the IC50, pseudovirus neutralization [27] was 0.0127 µg/mL. For the same substance, the IC80, pseudovirus neutralization [28] was over 50 µg/mL, the IC80, pseudovirus neutralization [29] was over 50 µg/mL and the IC80 [30] was over 50 µg/mL. The IC80, pseudovirus neutralization [31] was over 50 µg/mL, the IC80 [32] was 0.614 µg/mL and the IC80, pseudovirus neutralization [33] was 0.0497 µg/mL. It also gave an IC80, pseudovirus neutralization [34] of 0.0443 µg/mL, an IC80, pseudovirus neutralization [35] of 1.43 µg/mL and an IC80 [36] of over 50 µg/mL. For the same substance, the IC80 [37] was over 50 µg/mL, the IC80, pseudovirus neutralization [38] was 0.208 µg/mL and the IC80 [39] was 0.149 µg/mL. It also gave an IC80 [40] of 0.109 µg/mL, an IC80 [41] of 0.085 µg/mL and an IC80 [42] of 0.021 µg/mL. It also gave an IC80 [43] of 0.0503 µg/mL, an IC80, pseudovirus neutralization [44] of 0.0173 µg/mL and an IC80 [45] of 0.0347 µg/mL. For the same substance, the IC80 [46] was 25.3 µg/mL, the IC80 [47] was 0.0777 µg/mL and the IC80 [48] was over 50 µg/mL. The IC80 [49] was 0.128 µg/mL, the IC80 [50] was over 50 µg/mL and the IC80, pseudovirus neutralization [51] was 0.0167 µg/mL. It also gave an IC80, pseudovirus neutralization [52] of 0.137 µg/mL and an IC80 [53] of 2.02 µg/mL.
